Reference: patent publication US20080014204A1

Target: spike protein of wild-type SARS-CoV strain HKU 39849 (SARS-CoV strain HKU 39849)
Assay: cell-based or functional assay

With CR03-022 (antibody) the Log (TCID50/ml) with mAb (60 µg/ml CR03-022, FRhK-4 cells) (log TCID50/ml) was 4 and the NI (neutralization index) was 3.3 logs.
